Assay: yeast display, Sf9 membrane polyspecificity reagent, FACS + sequencing; frameworks hold sequencing errors
Procedure, shortened: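 Polyreactivity labels are assigned by the sorting gate from which each nanobody was recovered. The gates were low and high (top ~1%), set on anti-HA fluorescence for expression and streptavidin fluorescence for reagent binding. Before sorting, galactose-induced (36–48 hours) yeast display cells were stained for 1 hour at 4 °C with 10% biotinylated, detergent-solubilized Sf9 membrane reagent.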

QVQLVESGGGLVQAGGSLRLSCAASGFIFRWYAMGWYRQAPGKERELVAAISRSGDSTYYADSVKGRFTISRDNAKNTVYLQMNSLKPEDTAVYYCAADDRYYTYGYDYWGQGTQVTVSS
polyreactivity (PSR sort gate): low polyreactivity

QVQLVESGGGLVQAGGILRLSCASYGSTFALYAMGWYRPAPGKERELVATITGSGGITYYADSVKGRFTISRDNAKNTVYLQMNSLKPVDTAVYYCAADPYTLYWYYWYGTSGFDYWGQGTQVTVSS
polyreactivity (PSR sort gate): low polyreactivity

QVQLVESGGGLVQAGGSLRLSCAASGRTFYFNGMGWYRQAPGQERELVARISRRGGSTYYADSVKGRFTISRDNAKNTVYLQMNSLKPEDTAVYYCNTANYLLYDWGQGTQVNVSS
polyreactivity (PSR sort gate): high polyreactivity

QVQLVESGGGLVQAGGSLRLSCAASGITSYGYAMGWYIQAPGKERELVAAISRSGGTTYYADSVKGRFTISRDNAKNTVYLQMNSLKPEDTAVYYCALGKSHRGGGVSKFNYWGQGTQVTVSS
polyreactivity (PSR sort gate): low polyreactivity

QVQLVESGGGLVQAGGSLRLSCAASGRIFSVYAMGWSRQAPGKERELVATIRWGGGSTYYADSVKGRFTISRDNAKNTVYLQMNSLKPEDTAVYYCAAGWRGGRYRYFAYDYWGQGTQVTVSS
polyreactivity (PSR sort gate): high polyreactivity

QVQLVESGGGLVQAGGSLRLSCAASGSTFSHYAMGWYRQAPGKERELVATITYSGGSTYYADSVKGRFTISRDNAKNTVYLQMNSMKPEDTAVYYCAARPRFITYKRYYWGQGTQVTVSS
polyreactivity (PSR sort gate): high polyreactivity

QVPLVESGGGLVQAGGSLRLSCAASGSTLGRYAMGWYRQAPGKERELVASITWSDDSTYYADSEKGRFTISRDNAKNTVYLQMNSLKPEDTAVYYCAAAGNLYTYRFYYWGQGTQVTLSS
polyreactivity (PSR sort gate): low polyreactivity

QVQLVESGGGLVQAGGSLRLTCAASGLIFAENAMGWYRQAPGKERELVASITKSGGRTYYADSVKGRFTISRDNAKNTVYLQMNSLKPEDTAVYDCAAISYFPLRTRYERWFYYWGQGTQVTVSS
polyreactivity (PSR sort gate): high polyreactivity

QVQLVESGGCLVQAGGSLRLSCAASGSIFHPYGMGWYRQAPGKERELVAAITSSGGDTYYADSVKGRFTISRDNAKNTVYLQMNSLKPEDTAVYYCAATGLPGYYAYDYWGQGTQVTVSS
polyreactivity (PSR sort gate): low polyreactivity

QVQLVESGGGLVQAGGSLRLSCAASGLIFSSYAMGWYRQAPGQERELVAAITGSGGRTYYADSVKGRFTISRDNAKNTVYLQMNSLKPEDTAVYYWNRRSRRQGGYWGQGTHVTVSS
polyreactivity (PSR sort gate): high polyreactivity

QVQLVESGGGLVQAGGSLRLSCAASGRTFLWNDMGWSRQAPGKERELVAAITGSDGTYADSVKGRFTISRDNAKNTVYLQMNSLKPEDTAVYYCAAETYWYFPWKYDYWGQGTQVTVSS
polyreactivity (PSR sort gate): low polyreactivity

QVQLVDSGGGLVQAGGSLRLICAASGITFRHYAMGWYRTAPGKERELVAAITRRGGSTRYADSVKGRFTISRDNAKNTVYLQMNSLKPEDTAVYYCNAVYWSEGDWSERRDYWGQGTQVTVSS
polyreactivity (PSR sort gate): high polyreactivity

QVQLVESGGGLVQAGGSLRLSCAASGRTFDIYAMGWYRQAPGKERELVAAINRSAGDTYYADSVKGGFTISRDNAKNTVYLQMNSLKPEDTAVYYCNAERVPYVPWLLYTEYVNYVYWGQGTQLTVSS
polyreactivity (PSR sort gate): high polyreactivity

QVQLVESGGGLVQAGGSLRLSCAASGITFTYNAMGWYRPAPGKERELVAAITWSGGSTFYADSVKGRFTISRDNAKNTVYLQMNSLKPEDTAVYYCARDTELYDRWLDYWGQGTQVTVSS
polyreactivity (PSR sort gate): low polyreactivity

QVQLVESGGGLVQAGGSLRLSCAPSGRIFYAYAMGWYRHAPGKERELVAAITIGGNTNYADSVKGRFTSSRDNAKNTVYLQMNSLKPEVTAVYDCNARTYYYPWRGYHVVGSNDLGYWGQGTQVTVST
polyreactivity (PSR sort gate): low polyreactivity

QVQLVESGGGLVQAGGSLSLSCAASGRTFIRNAMGWYRQAPRKEREVVAAINSCGITNYADSVNGRFTISRDNAKNTVDLQMNSLKPEDTAVYYCANTFQYYWFSLYDYWGQGTQVTVSS
polyreactivity (PSR sort gate): low polyreactivity

QVQLVESGGGLVQAGGSLRLSCPASGIIFDRNAMGWYRQAPVKERELVAAITGSGGSTYYADSVKGRFTISRDNAKNTVYLQMNSLKPEDTAVYYCAATYLSRWTLYDYWGQGTQVTVSS
polyreactivity (PSR sort gate): high polyreactivity

QVQLVESGGGLVQAGGSLRLSCAASGSIFVYNAMGWYRQAPGKERELVAGITFIGGSTYYADSVKGRFTISRDNPKNTVYLQMNSLKPEDTAVYYCNADVAPGIFYGYDSWGQGTQVTVSS
polyreactivity (PSR sort gate): low polyreactivity

QVQLVESGGGLVQAGGSLRLSCAASGSIYGSYVMGWYRQAPGKERELVAAINWSGGRTYYADSVKGRFTISRDNAKYTVFLQMNSLKPEDTAVYYCAARATNVYSKMDYWGQGTQVSVSS
polyreactivity (PSR sort gate): high polyreactivity

QDQLVESGGGLVQEGGSLRLICGASGFIFPTNAMGWYRPAPGKERELVAAISRSGGTTNYADSVKGRFTISRDNAKNTVYLQRNSLKPEDTAVYYCNRGWATWHGPDDYWGQGTQVTVSS
polyreactivity (PSR sort gate): high polyreactivity

QVQLVESGGGLVQAGGSLRLSCAASGFTFNDYAMGWYRQAPGKERELVAAIDWSGGRTYYADSVKGRFTISRDNAKNTVYLQMNSLKPEDTAVYYCAAVLYSRLYLYRLDYWGQGTQVTVSS
polyreactivity (PSR sort gate): low polyreactivity

QVQLVESGGGLVQAGGILRLSCAASGGIFADYAMGWYRQAPGKERELVADISARGGSTYYADSVKGRFTISRDNAKNTVYLQMNSLKPEDTAVYYCAADALGYDYYYWGQGTQVTVSS
polyreactivity (PSR sort gate): low polyreactivity

QVQLVESGGGLVQAGGSLRLSCAASGSTFREYAMGWYRQAPGKERELVAAISSGDSTNYADSVKGRFTISRDNAKNTVYLQMNSLKPEDTAVYYCAADAPGAAAVQNDYWGQGTQVTVSS
polyreactivity (PSR sort gate): low polyreactivity

QVQLVESGGGLVQAGGSLRLSCAASGLIFYDNMGWYGPAPGKERELVAAISSSGGSTSYADSVKGRFTISRDNAKNTVYLQMNSLKPEDTAVYYCAADSYPAYLGFVCFDYWGQGTQVTVSS
polyreactivity (PSR sort gate): low polyreactivity

QVQLVESGGGLVQAGGSLRLSCAASGFTLWYYAMGWYRQAPGKERELVAGINSGGRTYYADSVKGRFTISRDNAKNTVYLQMNSLKPEDTAVYNCNARAWSSISHNSYIMDYWGQGTQVTVSS
polyreactivity (PSR sort gate): high polyreactivity

KVQLVESGGGLVQSGVSLRLSCAASGYTFEYNAMGWYIQAPGKEREFVSTITASGDSTYYAVSVKGRFTMSRDNAKNTVYFQMNSLKPEDTAVYYCAVDCAYLDDYSFTWDDYWGQGTQVTVSS
polyreactivity (PSR sort gate): low polyreactivity

QVQLVESGGGLVQAGGSLRLSCAASGLTFDWYTMGWYRQAPGKERELVATINSGGSTDYADSVKRRFTISRDNAKNTVYLQMNSLKPEDTAVYYCAAQPFVIDGGYRGDYWGQGTQVTVSS
polyreactivity (PSR sort gate): low polyreactivity

PVQLVESGGGLVQAGGSLRLSCAASGSTFAYNDLGWYRQAPGKERELVADIRSGGNTNYADSVKGRFTISRDNAKNTVYLQMNSLKPEDTAVYYCATDGYRIDVFHPDYRYDYWGQGTQETVSS
polyreactivity (PSR sort gate): low polyreactivity

QVQLVESGGVLVQAGGSLRLRCAASGRIFNRNAMGWYRQAPGKERELVAAITSCGSTNYADSVKGRFTISRDNAKNTVYLQMNSLKPEDTAVYYCNVYYHFFRLKTTYLRYYYWGQGTQVTVSS
polyreactivity (PSR sort gate): high polyreactivity

QVQHVESGGGLVQAGGSLRLSCAASGGIFERKDMGWYRQAHGKERQLVAGISSVGSTNYADSVKWRFTISRDNAKNTVYLQMNSLKPEDTAVYYCAAKRVRALYVGSEGGYWGQGTQVTVSS
polyreactivity (PSR sort gate): low polyreactivity

QVQLVESGGGLVQAGGSLRLSCAASGSIFRINVMGWYRQAPGKERELVAAISYSGGRTYYADSVKGRFTISRDNAKKTVYLQMNSLKPEDTAVYYCAATRSNFIYDYWGQGTQVTVSS
polyreactivity (PSR sort gate): high polyreactivity

QVQLVDSGGGLVQAGGSLRLSCAASGSTFRGYDMGWYRQAPGKESELVAAITGSGTSTYYADSVKVRFTISRDNAKNTVYLQMNSLKPEDTAVYYCAARSRRPAERMYYWGQGTQVTVSS
polyreactivity (PSR sort gate): high polyreactivity

QVQLVESGGGLVQAGGSLRLSCAASGSSFTWYAMGWYRQAPGKERELVAAITRGGSTYADSVKGRFTISRDNAKNTVYLQMNSLKPEDTAVYYCNAVYGVYDFNYWGQGTQVTVSS
polyreactivity (PSR sort gate): low polyreactivity

QVQLVESGGGLVQAGGSLRLSCADSGFISDWYAMGWYRQAPGKERELVATIDWIGGSTYADSVKGRFTISRDNAKNTVYLQMNSMKPEDTAVYYCNAYAFDSVREEDYWGQGTQVTVSS
polyreactivity (PSR sort gate): low polyreactivity

QVQLVESGGGLVQAGGSLRLSCAASGSIFYDKAMGWYRQAPGKERELVAVISNSGRTYYADSVKGRFTISRDNAKNTVYLQMNSLKPEDTAVYYCWGQVTQVTVSS
polyreactivity (PSR sort gate): low polyreactivity

QVQLVESGGGLVQAGGSLRLSCAASGRTFGGYTMGWYRQAPGKERELVAAINWSGTTYYADSVKGRFTISRDNAKNTVYLQMNSLIPEDTAVYYCAASLVSYYGLARDSVDYWGQGTQVNVSS
polyreactivity (PSR sort gate): low polyreactivity

QVQLVESGGGLVQAGGSLRLSCADSGGTFGYYVMGWNRQAPGKERELVAAITSGGSTKYADSVKGRFTISRDNAKNTVYLQMNSLKPEDTAVYYCAADYPYYPFSSIYDYWGQGTQVTVSS
polyreactivity (PSR sort gate): low polyreactivity

QVHLVESGGGLVQAGGSLRLSCAAYGRIFKNYAMGWYRQAPGKESELVAAISWSGGRTYYADSVKGRFTISRDNAKNTVYLQMNSLKPEDTAVYYCATAARRGTSSIEPFGYGSWGQGTQVTVSS
polyreactivity (PSR sort gate): high polyreactivity

QDQLVESRVGLVQAGGSLRLSCAATGFTFLSYTMGWYIQAPCKERELLADNTRSGGSTYYADSVKGRFTISRDNAKNSVYLQMNSLKPEDTAVYFCAARYSYDRYRGSQQFYYWGQGTQVTVSS
polyreactivity (PSR sort gate): high polyreactivity

QVQLVESGGGLVQAGGSLRLSSAASGSTLRRYAMGWYRQAPGKERELVAAISGSGDSTYYADSVKGRFTISRDNAKNTVYLQMNSLKPEDTAVYYCNAVYAFNGYDYWGQGTQVTVSS
polyreactivity (PSR sort gate): low polyreactivity

QVQQQESRGGLVQAGGSLRLSCAASCTISQEDWMGWYRQAPGKEREFVAAIGLGSNTNYADSLKGRFTISRDNAKNTVYLQMNSLKPEDTAVYYCAVSVWQYSDHVYRGQGTQVTVSS
polyreactivity (PSR sort gate): low polyreactivity

QVQLVESGGGLVQAGGSLRLSCAASGSTFYSYAMGWYRQAPGKERELVAAIDWSGTSTYYADSVKGRFTISRDNAKNTVYLQMNSLKPEDTAVYYCAARYTRGGSGPDYNYWGQGTQVTVSS
polyreactivity (PSR sort gate): high polyreactivity

QVQLVESGGGLVQAGGSLRLSCAASGSTFVIYAMGWYRQAPGKERELVASIRGRTGSTYYADSVKGRFTISRDNAKNTVYLQMNSLKPEDTAVYYCAATPGYKSKMDYWGQGTQVTVSS
polyreactivity (PSR sort gate): high polyreactivity
